Reference: publication PMC8219380, “The discriminatory power of the T cell receptor” (eLife, 2021)

Assays:
ErbB2 = assay: Discrimination power from published data: ErbB2 CARs; settings: n 4, ref Liu 2015
Text: (§1) The broad method was to obtain a measure of ligand potency from each study. […] If not explicitly provided, we estimated ligand potency as PX , which was defined by the concentration of ligand that produced X response. To do this, we drew a horizontal line at X on a provided dose-response graph and estimated the ligand concentration where the data intercepted the horizontal line. The disadvantage with this method is that ligand potency was estimated based on the single representative graph provided in the study.
(§2) Each study often contained or cited a study that contained estimates of KD or koff for the specific TCR/pMHC interactions used in the study. We only included studies where monomeric SPR binding data was available to avoid multimeric binding parameters (e.g. when using tetramers). However, when analysing discrimination by other non-TCR receptors, we included binding data from various methods (e.g. SPR, radio labelled ligands) provided they were monomeric measurements. The use of SPR is important for weak interactions, such as TCR/pMHC, but various methods are available for higher-affinity interactions.
(§3) The plot of potency over KD or k off was fit using linear regression on log-transformed axes. We reported the slope of the fit (i.e. the discrimination power, α), the goodness-of-fit measure ( R^2 ), and the p-value for the null hypothesis that the slope is zero (i.e. α=0 ). […]

IFNAR1 and IFNAR2 = assay: Discrimination power from published data: type I IFN receptor; settings: n 13, ref Thomas C. 2011
Text: as §1, §2, §3

M3 muscarinic receptor = assay: Discrimination power from published data: M3 receptor; settings: n 7, ref Sykes 2009
Text: as §1, §2, §3

c-Kit = assay: Discrimination power from published data: c-Kit; settings: n 4, ref Ho 2017
Text: as §1, §2, §3

CXC chemokine receptor 3 = assay: Discrimination power from published data: CXCR3; settings: ref Heise 2005
Text: as §1, §2
(§4) The plot of potency over KD or k off was fit using linear regression on log-transformed axes. We reported the slope of the fit (i.e. the discrimination power, α), the goodness-of-fit measure ( R^2 ), and the p-value for the null hypothesis that the slope is zero (i.e. α=0 ). We defined significance using the threshold of p=0.05.
Therefore, ligand affinity may not correlate to functional potency. Instead, we focused on identifying studies that used ligands that were confirmed to bind to the same interface with different affinities. As an example, Sykes et al. used seven agonists to the muscarinic M3 receptor and confirmed they all bound to the same interface using a binding competition assay ([Sykes et al., 2009]). Using titrations of each ligand, they examined the binding of GTPγS to CHO-M3 membrane as a measure of response (Figure 6C, left). […]

IL-13Ra1 = assay: Discrimination power from published data: IL-13 receptor; settings: ref Moraga 2015
Text: as §1, §2, §4
Cytokine receptors transduce signals by ligand-induced dimerisation of receptor subunits. We identified five studies that produced ligands with mutations that modified binding to either one or both receptor subunits and either reported potency or provided dose-response curves from which potency can be extracted ([Levin et al., 2012]; [Moraga et al., 2015]; [Thomas et al., 2011a]; [Mendoza et al., 2017]; [Martinez-Fabregas et al., 2019]). […] By measuring cellular responses, such as upregulation of CD86 on monocytes, dose-response curves were generated for each IL-13 variant, allowing us to determine ligand potency. We observed a significant correlation between potency and KD (Figure 6A). We repeated the analysis for each study (Figure 6—source data 1 ID 1–13). In studies that included ligands with mutations to both receptor interfaces, we plotted potency over the product of the dissociation constants to each interface since this serves as an estimate of the overall affinity (i.e. KD1×KD2 ).

[1] = system: IL-2 receptor subunit β (IL-2Rb); assay: Discrimination power from published data: IL-2 receptor; settings: n 4, ref Levin 2012
Text: as §1, §2, §3

gp130 = assay: Discrimination power from published data: IL-6 receptor; settings: ns, ref Martinez-Fabregas 2019
Text: as §1, §2, §3

ErB2
Power (discrimination power) (ErbB2; ID 26, output CD107): 1.058
Power (discrimination power) (ErbB2; ID 27, output Proliferation, ns): 0.6409

IFNAR1/IFNAR2
Power (discrimination power) (IFNAR1 and IFNAR2; ID 7, output antiviral): 0.7137
Power (discrimination power) (IFNAR1 and IFNAR2; ID 8, output antiproliferation): 1.329

M3 muscarinic receptor: M3 muscarinic receptor, set of agonists
Power (discrimination power) (M3 muscarinic receptor; ID 19, output Calcium, ns): 0.7717
Power (discrimination power) (M3 muscarinic receptor; ID 20, output GTPyS Binding): 0.5478

c-Kit: receptor tyrosine kinase activated by SCF
Power (discrimination power) (c-Kit; ID 15, output pERK): 0.834
Power (discrimination power) (c-Kit; ID 16, output pAKT): 0.882

B1: CXC chemokine receptor 3: CXCR3 with chemokine ligands (protein, UniProt P49682 1-368, looked up)
C-X-C chemokine receptor type …: MVLEVSDHQVLNDAEVAALLENFSSSYDYGENESDSCCTSPPCPQDFSLNFDRAFLPALYSLLFLLGLLGNGAVAAVLLSRRTALSSTDTFLLHLAVADTLLVLTLPLWAVDAAVQWVFGSGLCKVAGALFNINFYAGALLLACISFDRYLNIVHATQLYRRGPPARVTLTCLAVWGLCLLFALPDFIFLSAHHDERLNATHCQYNFPQVGRTALRVLQLVAGFLLPLLVMAYCYAHILAVLLVSRGQRRLRAMRLVVVVVVAFALCWTPYHLVVLVDILMDLGALARNCGRESRVDVAKSVTSGLGYMHCCLNPLLYAFVGVKFRERMWMLLLRLGCPNQRGLQRQPSSSRRDSSWSETSEASYSGL
Power (discrimination power) (CXC chemokine receptor 3; ID 22, output Calcium mobilization, n 3): 0.7346
Power (discrimination power) (CXC chemokine receptor 3; ID 23, output GTP gamma S Binding, n 3): 1.056
Power (discrimination power) (CXC chemokine receptor 3; ID 24, output Migrated Cells, n 2, ns, Perfect line): 0.5609

B2: IL-13Rα1 (protein, UniProt P78552 22-427, looked up)
Interleukin-13 receptor …: GGGGAAPTETQPPVTNLSVSVENLCTVIWTWNPPEGASSNCSLWYFSHFGDKQDKKIAPETRRSIEVPLNERICLQVGSQCSTNESEKPSILVEKCISPPEGDPESAVTELQCIWHNLSYMKCSWLPGRNTSPDTNYTLYYWHRSLEKIHQCENIFREGQYFGCSFDLTKVKDSSFEQHSVQIMVKDNAGKIKPSFNIVPLTSRVKPDPPHIKNLSFHNDDLYVQWENPQNFISRCLFYEVEVNNSQTETHNVFYVQEAKCENPEFERNVENTSCFMVPGVLPDTLNTVRIRVKTNKLCYEDDKLWSNWSQEMSIGKKRNSTLYITMLLIVPVIVAGAIIVLLLYLKRLKIIIFPPIPDPGKIFKEMFGDQNDDTLHWKKYDIYEKQTKEETDSVVLIENLKKASQ
Power (discrimination power) (IL-13Ra1; ID 3, output pSTAT6, n 9): 0.471
Power (discrimination power) (IL-13Ra1; ID 6, output CD205, n 9): 0.421

B3: IL-2R beta (protein, UniProt P14784 27-551, looked up)
Interleukin-2 receptor …: AVNGTSQFTCFYNSRANISCVWSQDGALQDTSCQVHAWPDRRRWNQTCELLPVSQASWACNLILGAPDSQKLTTVDIVTLRVLCREGVRWRVMAIQDFKPFENLRLMAPISLQVVHVETHRCNISWEISQASHYFERHLEFEARTLSPGHTWEEAPLLTLKQKQEWICLETLTPDTQYEFQVRVKPLQGEFTTWSPWSQPLAFRTKPAALGKDTIPWLGHLLVGLSGAFGFIILVYLLINCRNTGPWLKKVLKCNTPDPSKFFSQLSSEHGGDVQKWLSSPFPSSSFSPGGLAPEISPLEVLERDKVTQLLLQQDKVPEPASLSSNHSLTSCFTNQGYFFFHLPDALEIEACQVYFTYDPYSEEDPDEGVAGAPTGSSPQPLQPLSGEDDAYCTFPSRDDLLLFSPSLLGGPSPPSTAPGGSGAGEERMPPSLQERVPRDWDPQPLGPPTPGVPDLVDFQPPPELVLREAGEEVPDAGPREGVSFPWSRPPGQGEFRALNARLPLNTDAYLSLQELQGQDPTHLV
Power (discrimination power) ([1]; ID 1, output CD25 – pSTAT5 (NK cells)): 0.546
Power (discrimination power) ([1]; ID 2, output CD25 – %pSTAT5 (T cells)): 0.743

B4: gp130 (and IL6R alpha) (protein, UniProt P40189 23-918; P08887 20-468, looked up)
Interleukin-6 receptor … 1: ELLDPCGYISPESPVVQLHSNFTAVCVLKEKCMDYFHVNANYIVWKTNHFTIPKEQYTIINRTASSVTFTDIASLNIQLTCNILTFGQLEQNVYGITIISGLPPEKPKNLSCIVNEGKKMRCEWDGGRETHLETNFTLKSEWATHKFADCKAKRDTPTSCTVDYSTVYFVNIEVWVEAENALGKVTSDHINFDPVYKVKPNPPHNLSVINSEELSSILKLTWTNPSIKSVIILKYNIQYRTKDASTWSQIPPEDTASTRSSFTVQDLKPFTEYVFRIRCMKEDGKGYWSDWSEEASGITYEDRPSKAPSFWYKIDPSHTQGYRTVQLVWKTLPPFEANGKILDYEVTLTRWKSHLQNYTVNATKLTVNLTNDRYLATLTVRNLVGKSDAAVLTIPACDFQATHPVMDLKAFPKDNMLWVEWTTPRESVKKYILEWCVLSDKAPCITDWQQEDGTVHRTYLRGNLAESKCYLITVTPVYADGPGSPESIKAYLKQAPPSKGPTVRTKKVGKNEAVLEWDQLPVDVQNGFIRNYTIFYRTIIGNETAVNVDSSHTEYTLSSLTSDTLYMVRMAAYTDEGGKDGPEFTFTTPKFAQGEIEAIVVPVCLAFLLTTLLGVLFCFNKRDLIKKHIWPNVPDPSKSHIAQWSPHTPPRHNFNSKDQMYSDGNFTDVSVVEIEANDKKPFPEDLKSLDLFKKEKINTEGHSSGIGGSSCMSSSRPSISSSDENESSQNTSSTVQYSTVVHSGYRHQVPSVQVFSRSESTQPLLDSEERPEDLQLVDHVDGGDGILPRQQYFKQNCSQHESSPDISHFERSKQVSSVNEEDFVRLKQQISDHISQSCGSGQMKMFQEVSAADAFGPGTEGQVERFETVGMEAATDEGMPKSYLPQTVRQGGYMPQ
Interleukin-6 receptor … 2: LAPRRCPAQEVARGVLTSLPGDSVTLTCPGVEPEDNATVHWVLRKPAAGSHPSRWAGMGRRLLLRSVQLHDSGNYSCYRAGRPAGTVHLLVDVPPEEPQLSCFRKSPLSNVVCEWGPRSTPSLTTKAVLLVRKFQNSPAEDFQEPCQYSQESQKFSCQLAVPEGDSSFYIVSMCVASSVGSKFSKTQTFQGCGILQPDPPANITVTAVARNPRWLSVTWQDPHSWNSSFYRLRFELRYRAERSKTFTTWMVKDLQHHCVIHDAWSGLRHVVQLRAQEEFGQGEWSEWSPEAMGTPWTESRSPPAENEVSTPMQALTTNKDDDNILFRDSANATSLPVQDSSSVPLPTFLVAGGSLAFGTLLCIAIVLRFKKTWKLRALKEGKTSMHPPYSLGQLVPERPRPTPVLVPLISPPVSPSSLGSDNTSSHNRPDARDPRSPYDISNTDYFFPR
Power (discrimination power) (gp130; ID 12, output pSTAT1, n 3): 0.5438
Power (discrimination power) (gp130; ID 13, output pSTAT3, n 4): 0.5194

B5: IL-13Rα2 (protein, UniProt Q14627 27-380, looked up)
Interleukin-13 receptor …: DTEIKVNPPQDFEIVDPGYLGYLYLQWQPPLSLDHFKECTVEYELKYRNIGSETWKTIITKNLHYKDGFDLNKGIEAKIHTLLPWQCTNGSEVQSSWAETTYWISPQGIPETKVQDMDCVYYNWQYLLCSWKPGIGVLLDTNYNLFYWYEGLDHALQCVDYIKADGQNIGCRFPYLEASDYKDFYICVNGSSENKPIRSSYFTFQLQNIVKPLPPVYLTFTRESSCEIKLKWSIPLGPIPARCFDYEIEIREDDTTLVTATVENETYTLKTTNETRQLCFVVRSKVNIYCSDDGIWSEWSDKQCWEGEDLSKKTLLRFWLPFGFILILVIFVTGLLLRKPNTYPKMIPEFFCDT
Power (discrimination power) (IL-13Ra1; ID 4, output Proliferation, n 9, ns): 0.394
Power (discrimination power) (IL-13Ra1; ID 5, output CD86): 0.442
